Measurements reported in patent publication US20260139048A1 (NANJING LEGEND BIOTECH, published 2026).

T1: His-tagged human TIGIT (human, UniProt Q495A1 22-141)
T1 construct: SPR analyte; also called human TIGIT protein; not shown: His tag
T1 sequence: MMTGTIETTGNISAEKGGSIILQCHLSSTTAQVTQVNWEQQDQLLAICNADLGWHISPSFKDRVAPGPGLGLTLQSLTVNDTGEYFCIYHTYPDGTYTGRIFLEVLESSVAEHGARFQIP


What follows are binders tested against T1, His-tagged human TIGIT (assay: SPR experiment 1, IgG from HEK293 supernatant captured).

Kd [nM] | koff [s⁻¹] | kon [M⁻¹ s⁻¹] | Binder
0.3 | 0.00014 | 470000 | humanized TIGIT-6 antibody 6VH6 + 6VL1 (antibody, V domains shown, Full-length IgG, tested as HEK293 supernatant) VH: QVQLVQSGAEVKKPGASVKVSCKASGYTITENTMHWVRQAPGQRLEWIGGINPNNGGTSYNQQFKGRATLTVDTSASTAYMELSSLRSEDTAVYYCTRSSYYRYDLDYWGQGTTVTVSS VL: DIQMTQSPSSLSASVGDRVTITCKASQDVKTALAWYQQKPGKAPKLLIYSASYRYTGVPSRFSGSGSGTDFTFTISSLQPEDIATYYCHQHYTTPWTFGGGTKLEIK
0.65 | 0.00015 | 230000 | humanized TIGIT-6 antibody 6VH6.M4 + 6VL1 (antibody, V domains shown, Full-length IgG, tested as HEK293 supernatant) VH: QVQLVQSGAEVKKPGASVKVSCKASGYTITENTMHWVRQAPGQRLEWIGGINPNQGGTSYSQKFQGRATLTVDTSASTAYMELSSLRSEDTAVYYCTRSSYYRYDLDYWGQGTTVTVSS VL: DIQMTQSPSSLSASVGDRVTITCKASQDVKTALAWYQQKPGKAPKLLIYSASYRYTGVPSRFSGSGSGTDFTFTISSLQPEDIATYYCHQHYTTPWTFGGGTKLEIK
0.63 | 0.00026 | 410000 | humanized TIGIT-6 antibody 6VH6.M1 + 6VL1 (antibody, V domains shown, Full-length IgG, tested as HEK293 supernatant) VH: QVQLVQSGAEVKKPGASVKVSCKASGYTFTENAMHWVRQAPGQRLEWIGGINPNNGGTSYNQQFKGRATLTVDTSASTAYMELSSLRSEDTAVYYCTRSSYYRYDLDYWGQGTTVTVSS VL: DIQMTQSPSSLSASVGDRVTITCKASQDVKTALAWYQQKPGKAPKLLIYSASYRYTGVPSRFSGSGSGTDFTFTISSLQPEDIATYYCHQHYTTPWTFGGGTKLEIK
0.24 | 0.00013 | 530000 | humanized TIGIT-6 antibody 6VH6 + 6VL1.M1 (antibody, V domains shown, Full-length IgG, tested as HEK293 supernatant) VH: QVQLVQSGAEVKKPGASVKVSCKASGYTITENTMHWVRQAPGQRLEWIGGINPNNGGTSYNQQFKGRATLTVDTSASTAYMELSSLRSEDTAVYYCTRSSYYRYDLDYWGQGTTVTVSS VL: DIQMTQSPSSLSASVGDRVTITCQASQDIKTALAWYQQKPGKAPKLLIYSASYRYTGVPSRFSGSGSGTDFTFTISSLQPEDIATYYCHQHYTTPWTFGGGTKLEIK
0.35 | 0.00011 | 310000 | humanized TIGIT-6 antibody 6VH5 + 6VL1 (antibody, V domains shown, Full-length IgG, tested as HEK293 supernatant) VH: QVQLVQSGAEVKKPGASVKVSCKASGYTITENTMHWVRQAPGQRLEWIGGINPNNGGTSYNQQFKGRATLTRDTSASTAYMELSSLRSEDTAVYYCTRSSYYRYDLDYWGQGTTVTVSS VL: DIQMTQSPSSLSASVGDRVTITCKASQDVKTALAWYQQKPGKAPKLLIYSASYRYTGVPSRFSGSGSGTDFTFTISSLQPEDIATYYCHQHYTTPWTFGGGTKLEIK
0.35 | 0.00012 | 350000 | humanized TIGIT-6 antibody 6VH6.M3 + 6VL1 (antibody, V domains shown, Full-length IgG, tested as HEK293 supernatant) VH: QVQLVQSGAEVKKPGASVKVSCKASGYTITENTMHWVRQAPGQRLEWIGGINPNNGGTSYSQKFQGRATLTVDTSASTAYMELSSLRSEDTAVYYCTRSSYYRYDLDYWGQGTTVTVSS VL: DIQMTQSPSSLSASVGDRVTITCKASQDVKTALAWYQQKPGKAPKLLIYSASYRYTGVPSRFSGSGSGTDFTFTISSLQPEDIATYYCHQHYTTPWTFGGGTKLEIK

The binders below were run against T1, His-tagged human TIGIT (assay: SPR experiment 2, IgG from HEK293 supernatant captured).

Kd [nM] | koff [s⁻¹] | kon [M⁻¹ s⁻¹] | Binder
0.023 | 2.7e-05 | 1.2e+06 | humanized TIGIT-19 antibody 19VH4 + 19VL1.M4 (antibody, V domains shown, Full-length IgG, tested as HEK293 supernatant) VH: QVQLVQSGAEVKKPGASVKVSCKASGYAFSRYSMYWVRQAPGQGLEWIAFIDPYNGGSTYNQRFRGKATLTVDTSISTAYMELSRLRSDDTAVYYCARGGDYGWYLGVWGQGTLVTVSS VL: DIQMTQSPSSLSASVGDRVTITCRPSENIYTYLSWYQQKPGKAPKLLIYNAKSLPSGVPSRFSGSGSGTDFTLTISSLQPEDFATYYCQHHYGNPLTFGQGTKVEIK
0.3 | 0.00032 | 1.1e+06 | humanized TIGIT-19 antibody 19VH4.M7 + 19VL1 (antibody, V domains shown, Full-length IgG, tested as HEK293 supernatant) VH: QVQLVQSGAEVKKPGASVKVSCKASGYTFTRYSMYWVRQAPGQGLEWIAFIDPYSGGSTYAQKFQGKATLTVDTSISTAYMELSRLRSDDTAVYYCARGGDYGWYLGVWGQGTLVTVSS VL: DIQMTQSPSSLSASVGDRVTITCRPSENIYTYLSWYQQKPGKAPKLLIYNAKTLPEGVPSRFSGSGSGTDFTLTISSLQPEDFATYYCQHHYGNPLTFGQGTKVEIK
0.081 | 8.7e-05 | 1.1e+06 | humanized TIGIT-19 antibody 19VH4 + 19VL1.M5 (antibody, V domains shown, Full-length IgG, tested as HEK293 supernatant) VH: QVQLVQSGAEVKKPGASVKVSCKASGYAFSRYSMYWVRQAPGQGLEWIAFIDPYNGGSTYNQRFRGKATLTVDTSISTAYMELSRLRSDDTAVYYCARGGDYGWYLGVWGQGTLVTVSS VL: DIQMTQSPSSLSASVGDRVTITCRASQNIYTYLSWYQQKPGKAPKLLIYNAKSLPSGVPSRFSGSGSGTDFTLTISSLQPEDFATYYCQHHYGNPLTFGQGTKVEIK
0.13 | 0.00017 | 1.3e+06 | humanized TIGIT-19 antibody 19VH4 + 19VL1.M7 (antibody, V domains shown, Full-length IgG, tested as HEK293 supernatant) VH: QVQLVQSGAEVKKPGASVKVSCKASGYAFSRYSMYWVRQAPGQGLEWIAFIDPYNGGSTYNQRFRGKATLTVDTSISTAYMELSRLRSDDTAVYYCARGGDYGWYLGVWGQGTLVTVSS VL: DIQMTQSPSSLSASVGDRVTITCRASQSIYSYLSWYQQKPGKAPKLLIYNAKSLPSGVPSRFSGSGSGTDFTLTISSLQPEDFATYYCQHHYGNPLTFGQGTKVEIK
0.2 | 0.00021 | 1e+06 | humanized TIGIT-19 antibody 19VH4.M6 + 19VL1 (antibody, V domains shown, Full-length IgG, tested as HEK293 supernatant) VH: QVQLVQSGAEVKKPGASVKVSCKASGYTFTRYSMYWVRQAPGQGLEWIAFIDPYSGGSTYNQRFRGKATLTVDTSISTAYMELSRLRSDDTAVYYCARGGDYGWYLGVWGQGTLVTVSS VL: DIQMTQSPSSLSASVGDRVTITCRPSENIYTYLSWYQQKPGKAPKLLIYNAKTLPEGVPSRFSGSGSGTDFTLTISSLQPEDFATYYCQHHYGNPLTFGQGTKVEIK
0.12 | 0.00013 | 1.1e+06 | humanized TIGIT-19 antibody 19VH4.M4 + 19VL1 (antibody, V domains shown, Full-length IgG, tested as HEK293 supernatant) VH: QVQLVQSGAEVKKPGASVKVSCKASGYAFSRYSMYWVRQAPGQGLEWIAFIDPYSGGSTYNQRFRGKATLTVDTSISTAYMELSRLRSDDTAVYYCARGGDYGWYLGVWGQGTLVTVSS VL: DIQMTQSPSSLSASVGDRVTITCRPSENIYTYLSWYQQKPGKAPKLLIYNAKTLPEGVPSRFSGSGSGTDFTLTISSLQPEDFATYYCQHHYGNPLTFGQGTKVEIK
0.22 | 0.00023 | 1.1e+06 | humanized TIGIT-19 antibody 19VH4.M9 + 19VL1 (antibody, V domains shown, Full-length IgG, tested as HEK293 supernatant) VH: QVQLVQSGAEVKKPGASVKVSCKASGYTFTRYSMYWVRQAPGQGLEWIAFIDAYSGGSTYNQRFRGKATLTVDTSISTAYMELSRLRSDDTAVYYCARGGDYGWYLGVWGQGTLVTVSS VL: DIQMTQSPSSLSASVGDRVTITCRPSENIYTYLSWYQQKPGKAPKLLIYNAKTLPEGVPSRFSGSGSGTDFTLTISSLQPEDFATYYCQHHYGNPLTFGQGTKVEIK
0.16 | 0.0002 | 1.3e+06 | humanized TIGIT-19 antibody 19VH4.M5 + 19VL1 (antibody, V domains shown, Full-length IgG, tested as HEK293 supernatant) VH: QVQLVQSGAEVKKPGASVKVSCKASGYAFSRYSMYWVRQAPGQGLEWIAFIDPYNGGSTYAQKFQGKATLTVDTSISTAYMELSRLRSDDTAVYYCARGGDYGWYLGVWGQGTLVTVSS VL: DIQMTQSPSSLSASVGDRVTITCRPSENIYTYLSWYQQKPGKAPKLLIYNAKTLPEGVPSRFSGSGSGTDFTLTISSLQPEDFATYYCQHHYGNPLTFGQGTKVEIK
0.15 | 0.00015 | 1e+06 | humanized TIGIT-19 antibody 19VH4 + 19VL1.M6 (antibody, V domains shown, Full-length IgG, tested as HEK293 supernatant) VH: QVQLVQSGAEVKKPGASVKVSCKASGYAFSRYSMYWVRQAPGQGLEWIAFIDPYNGGSTYNQRFRGKATLTVDTSISTAYMELSRLRSDDTAVYYCARGGDYGWYLGVWGQGTLVTVSS VL: DIQMTQSPSSLSASVGDRVTITCRASQNIYSYLSWYQQKPGKAPKLLIYNAKSLPSGVPSRFSGSGSGTDFTLTISSLQPEDFATYYCQHHYGNPLTFGQGTKVEIK

Target: T1, His-tagged human TIGIT
Assay: as above
Remark: another data set of the same source

Kd [nM] | koff [s⁻¹] | kon [M⁻¹ s⁻¹] | Binder
0.5 | 0.00016 | 320000 | humanized TIGIT-6 antibody 6VH6.M3 + 6VL1.M1 (antibody, V domains shown, Full-length IgG, tested as HEK293 supernatant) VH: QVQLVQSGAEVKKPGASVKVSCKASGYTITENTMHWVRQAPGQRLEWIGGINPNNGGTSYSQKFQGRATLTVDTSASTAYMELSSLRSEDTAVYYCTRSSYYRYDLDYWGQGTTVTVSS VL: DIQMTQSPSSLSASVGDRVTITCQASQDIKTALAWYQQKPGKAPKLLIYSASYRYTGVPSRFSGSGSGTDFTFTISSLQPEDIATYYCHQHYTTPWTFGGGTKLEIK
